Laboratory results published in US20080214457A1 (METROHEALTH SYSTEM, published 2008).
Where no end group is shown, it is not given here.

Target: T1, H558-YFPf (human, UniProt Q14524 538-577)
T1 construct: Expressed in HEK293 cells; also called hNav1.5 protein fragment centered on H558 fused to YFP; not shown: enhanced yellow fluorescent protein from the pEYFP-N3 vector
Assay: three-channel FRET normalized to CFP, fragments coexpressed in HEK293 cells
Description: Three-channel FRET ratios were normalized to CFP and reported as FRETc as previously described by Vanderklish and colleagues, Proc Natl Acad Sci USA. 2000; 97:2253-2258. […] In all experiments, FRET was absent from the cell membrane, which is consistent with the inability of these protein fragments to traffic to the membrane. […] More importantly, hNav1.5 interaction occurs preferentially when 1 protein expresses R558 and the other expresses H558.

B1: R558-CFPf (other, human, UniProt Q14524 538-577, looked up)
chain: GSEADFADDENSTAGESESHRTSLLVPWPLRRTSAQGQPS
modifications: also: fused to CFP, linker and end not given here
notes: Expressed in HEK293 cells; not shown: enhanced cyan fluorescent protein from the pECFP-N3 vector
fold increase in FRETc compared with the homotypic FRETc values: 3 fold
